The supplement of paper PMC7877785
± gives the uncertainty stated by the source.

Assay: self-splicing fitness, log relative to wild type (ln ratio); higher = more splicing; Tetrahymena group I intron in knt gene, E. coli kanamycin selection, DiMSum; sequences stand for … in CUCUCU…GGAGGGAAAAGUUAUCAGGCAUGCACCUGGUAGCUAGUCUUUAAACCAAUAGAUUGCAUCGGUUUAAAAGGCAAGACCGUCAAAUUGCGGGAAAGGGGUCAACAGCCGUUCAGUACCAAGUCUCAGGGGAAACUUUGAGAUGGCCUUGCAAAGGGUAUGGUAAUAAGCUGACGGACAUGGUCCUAACCACGCAGCCAAGUCCUAAGUCAACAGAUCUUCUGUUGAUAUGGAUGCAGUUCACAGACUAAAUGUCGGUCGGGGAAGAUGUAUUCUUCUCAUAAGAUAUAGUCGGACCUCUCCUUAAUGGGAGCUAGCGGAUGAAGUGAUGCAACACUGGAGCCGCUGGGAACUAAUUUGUAUGCGAAAGUAUAUUGAUUAGUUUUGGAGUACUCGUGGUCG
Outline: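 Six replicate transformations of E. coli BL21(DE3) with a pET-22b(+) library were grown overnight at 37°C or 30°C. The library randomised all eight P1ex-region intron nucleotides, the intron lying in the knt kanamycin-resistance gene, and plates were LB agar with or without 25 μg/mL kanamycin plus 100 μg/mL carbenicillin, 50 μM IPTG and 0.2% rhamnose. Pooled colonies were amplicon-sequenced on an Illumina HiSeq 2500, and fitness is the DiMSum error-weighted combination of wild-type-normalised replicate fold changes, kanamycin versus none.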

Sequence | self-splicing fitness (ln) (30 °C) | self-splicing fitness (ln) (37 °C)
GUUUAGCAAUAUUACGGUAG | -3.53 ± 0.29 | -1.72 ± 0.19
UAUAAGCAAUAUUACGAAGA | -2.72 ± 0.24 | -1.66 ± 0.16
AUGGAGCAAUAUUACGAAAC | -2.72 ± 0.4 | –
GAUCAGCAAUAUUACGGCGG | -2.43 ± 0.13 | -2.06 ± 0.17
CAAGAGCAAUAUUACGGGUC | -3.71 ± 0.21 | -2.17 ± 0.17
CCCCAGCAAUAUUACGUGCU | -3.34 ± 0.14 | -2.47 ± 0.16
UCCUAGCAAUAUUACGAGAU | -2.85 ± 0.16 | -1.7 ± 0.19
ACUUAGCAAUAUUACGUUGA | -4.69 ± 0.36 | -2.06 ± 0.12
AACCAGCAAUAUUACGCAGC | -2.4 ± 0.11 | -1.29 ± 0.11
ACAUAGCAAUAUUACGCGGA | -2.07 ± 0.14 | -0.505 ± 0.1
CCUUAGCAAUAUUACGUAAA | -3.63 ± 0.26 | -1.88 ± 0.3
AGCCAGCAAUAUUACGCAUA | -2.21 ± 0.15 | -1.34 ± 0.16
CAUAAGCAAUAUUACGUGCA | -3.45 ± 0.23 | -2.4 ± 0.18
CCGGAGCAAUAUUACGUCAC | -3.61 ± 0.34 | -2.71 ± 0.38
CCCAAGCAAUAUUACGGGAG | -3.79 ± 0.13 | -2.29 ± 0.13
UCUAAGCAAUAUUACGGCUC | – | -1.67 ± 0.35
GUCGAGCAAUAUUACGGGUU | -3.03 ± 0.2 | -1.04 ± 0.16
GCGAAGCAAUAUUACGAUUG | -2.92 ± 0.097 | -1.64 ± 0.096
GGCGAGCAAUAUUACGACCG | -0.74 ± 0.28 | -0.371 ± 0.26
AGACAGCAAUAUUACGUGCA | -0.683 ± 0.069 | -0.00672 ± 0.079
ACAGAGCAAUAUUACGCCGG | -2.81 ± 0.25 | -2.4 ± 0.33
AGACAGCAAUAUUACGUCGG | -2.44 ± 0.15 | -0.528 ± 0.15
UUACAGCAAUAUUACGGUCU | -0.96 ± 0.075 | -0.357 ± 0.088
CGAUAGCAAUAUUACGGUUG | -1.9 ± 0.15 | -0.9 ± 0.13
UCCGAGCAAUAUUACGGGAU | -3.44 ± 0.33 | –

Sequence | self-splicing fitness (ln) (30 °C) | self-splicing fitness (ln) (37 °C)
UAUAAGCAAUAUUACGUCGC | -3.29 ± 0.28 | -2.24 ± 0.37
CUCGAGCAAUAUUACGCACA | -4.64 ± 0.3 | -1.94 ± 0.19
ACGUAGCAAUAUUACGGGAA | -1.95 ± 0.2 | -3.19 ± 0.37
AUCGAGCAAUAUUACGACCG | – | -1.63 ± 0.36
CCACAGCAAUAUUACGGGUG | -2.04 ± 0.05 | -0.716 ± 0.059
CACCAGCAAUAUUACGAAAC | – | -2.12 ± 0.31
CCGUAGCAAUAUUACGUGAG | -3.11 ± 0.34 | -2.51 ± 0.38
GGGUAGCAAUAUUACGGACU | -0.272 ± 0.19 | 0.331 ± 0.24
CCCAAGCAAUAUUACGUCUG | -3.87 ± 0.19 | -2.18 ± 0.21
UAUAAGCAAUAUUACGACCU | 0.317 ± 0.2 | -0.146 ± 0.23
UGGUAGCAAUAUUACGAGAG | -3.55 ± 0.28 | -2.16 ± 0.21
GCAGAGCAAUAUUACGUCAU | – | -1.4 ± 0.42
CAGCAGCAAUAUUACGAAUG | -1.69 ± 0.061 | 0.012 ± 0.083
UCAUAGCAAUAUUACGUUCA | -1.73 ± 0.1 | -1.57 ± 0.1
CAAUAGCAAUAUUACGCGCG | -0.577 ± 0.094 | -0.206 ± 0.1
GGUGAGCAAUAUUACGUCAU | -3.97 ± 0.19 | -2.76 ± 0.31
AUAAAGCAAUAUUACGGAGC | -2.79 ± 0.2 | -2.21 ± 0.22
GCUAAGCAAUAUUACGCCUG | -0.523 ± 0.16 | -1.55 ± 0.22
GACGAGCAAUAUUACGUGUA | -5.08 ± 0.25 | -2.49 ± 0.14
UAGUAGCAAUAUUACGCAAG | -2.78 ± 0.45 | -1.25 ± 0.24
AGCCAGCAAUAUUACGUUCC | -2.02 ± 0.17 | -2.04 ± 0.28
GAUGAGCAAUAUUACGGCGC | -0.349 ± 0.17 | 0.649 ± 0.25
AGUUAGCAAUAUUACGUGAA | -2.78 ± 0.15 | -2.31 ± 0.2
ACUUAGCAAUAUUACGUCUG | -1.82 ± 0.11 | -0.782 ± 0.15
GCCCAGCAAUAUUACGGAUC | -0.448 ± 0.044 | -0.289 ± 0.056
